The target of the test is T1, human heat shock protein Hsp90α (human, UniProt P07900 2-732).
T1 construct: Target protein of the dot blot assay
Put plainly: dot blot assay, direct interaction with Hsp90α.

On to DEIVKELRSRYNIST [SNC1 (15aa)], for which the binding result is “no binding”.
